Reference: US20240174755A1 (published 2024)
Each block holds one binder with its values, some of them ahead of it.

Experiments:
[1] = target: T1, human PDGFR β extra-cellular domain (ECD), Fc- and His-tagged (Sino Biological) (human, UniProt P09619 33-532); assay: biotin-streptavidin ELISA, human PDGFR β ECD coated at 1 ug/ml
T1 construct: extracellular domain; Bought; also called hECD; Fc/His-tagged PDGFR β ECD; not shown: Fc tag and His tag
Procedure: (§1) In this example, the binding affinity of biotin-conjugated VHHs 1B5 and 1E12 to either human or mouse PDGFR β extra-cellular domain (ECD) was assessed using biotin-streptavidin ELISA. Human or mouse PDGFR β ECD was coated on immunoassay wells, where 1B5-biotin or 1E12-biotin were captured. Binding was detected using streptavidin-HRP and ODP as a substrate.
ELISA Method 96-well maxisorp (Nunc) immunosorp plates were coated with 1 ug/ml or 2 ug/ml of PDGFR β extracellular domain (ECD; Fc- and His-tagged, Sino Biological) or mouse PDGFR β ECD (R&D Systems) 4 ug/ml in PBS, 100 ul per well, at 4C overnight. Wells were washed thrice in PBS. Unspecific binding sites were blocked in 4% BSA/PBS for 1h at RT, followed by washing thrice in PBS. VHHs 1B5-biotin or 1E12-biotin, diluted at 0.01-100 nM in 1% BSA/PBS, was allowed to bind on ECD for 1 h at RT, followed by washing thrice in PBS. Streptavidin-horseradish peroxidase (HRP; GeneTex) was diluted 1:10,000 in 1% BSA/PBS and was incubated for 1 h at RT. […] Optical density was measured at 492 nm on a Synergy H1 microplate reader (BioTek). […]

[2] = target: T2, human EGFR/HER1/ErbB1 Protein (His Tag, Sino Biological; Cat. Number 10001-H08H) (human, UniProt P00533 25-645); assay: direct ELISA, EGFR coated, streptavidin-HRP detection
T2 construct: Bought; construct not described; not shown: His tag
Procedure: (§2) 96-well maxisorp (Nunc) immunosorp plates were coated with 2 ug/ml of human PDGFRa (Sino Biological; Cat. Number; 10556-HCCH) or 2 ug/ml human EGFR/HER1/ErbB1 Protein (His Tag, Sino Biological; Cat. Number; 10001-H08H) in PBS, 100 ul per well, at 4C overnight. Wells were washed thrice in PBS. Unspecific binding sites were blocked in 4% BSA/PBS for 1 h at RT, followed by washing thrice in PBS. VHH-biotin conjugates, diluted at 0.01-100 nM in 1% BSA/PBS, were incubated for 1 h at RT, followed by washing thrice in PBS. Streptavidin-horseradish peroxidase (HRP; GeneTex) was diluted 1:40,000 in 1% BSA/PBS and was incubated for 1 h at RT. PDGFRa or EGFR was detected with positive control antibodies rabbit anti-human PDGFRa/CD140a Antibody, (Cat no: 10556-R065) or rabbit anti-human EGFR/HER1/ErbB1 (Catalog no: 10001-R021, both from Sino Biological) diluted in 1% BSA/PBS at 1:5000 and were incubated for 1 h at RT, shaking. Secondary HRP-conjugated anti-rabbit-antibody was diluted at 1:5000 in 1% BSA/PBS and was incubated for 1 h at RT, shaking. Wells were washed 6 times in PBS. o-Phenylenediamine dihydrochloride (OPD; Sigma-Aldrich) was used as HRP substrate at 0.4 mg/ml in 0.05 M phosphate-citrate buffer pH 5.0 with 0.03% sodium perborate (Sigma-Aldrich), prepared according to the manufacturer's recommendations, and was used in volume of 100 ul per well. Reaction was allowed to proceed for 30 min at RT in dark, and was stopped by adding 50 ul of 1.5 M HCl. Optical density was measured at 492 nm on a Synergy H1 microplate reader (BioTek).

[3] = target: T3, human PDGFRa (Sino Biological; Cat. Number 10556-HCCH) (human, UniProt P16234 24-524, limits assumed); assay: direct ELISA, PDGFRa coated, streptavidin-HRP detection
T3 construct: Bought; construct not described; also called PDGFRα
Procedure: as §2
VHH-biotin binding to human PDGFRa was assessed using an ELISA, where wells were coated with PDGFRa, and VHH-biotin binding was detected using streptavidin-HRP with OPD as a substrate.

[4] = target: T4, mouse PDGFR β ECD (R&D Systems) (mouse, UniProt P05622 32-531); assay: biotin-streptavidin ELISA, mouse PDGFR β ECD coated at 4 ug/ml
T4 construct: extracellular domain; Bought; also called mECD; mouse ECD
T4 sequence (looked up): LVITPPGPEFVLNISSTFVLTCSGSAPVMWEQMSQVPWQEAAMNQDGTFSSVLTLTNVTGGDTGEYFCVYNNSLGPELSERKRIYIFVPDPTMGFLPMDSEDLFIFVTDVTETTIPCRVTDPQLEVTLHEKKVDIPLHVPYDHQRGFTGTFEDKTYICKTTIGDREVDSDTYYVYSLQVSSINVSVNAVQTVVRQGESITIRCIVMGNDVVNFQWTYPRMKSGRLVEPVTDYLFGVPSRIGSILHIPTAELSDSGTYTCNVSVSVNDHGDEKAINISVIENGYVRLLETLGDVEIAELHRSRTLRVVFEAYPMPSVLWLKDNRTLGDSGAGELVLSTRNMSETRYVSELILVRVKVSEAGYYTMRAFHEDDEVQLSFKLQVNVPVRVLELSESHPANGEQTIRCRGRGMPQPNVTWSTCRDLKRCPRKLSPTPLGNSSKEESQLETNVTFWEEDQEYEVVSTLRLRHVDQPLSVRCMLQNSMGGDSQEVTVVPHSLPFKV
Procedure: as §1
ELISA Method 96-well maxisorp (Nunc) immunosorp plates were coated with 1 ug/ml or 2 ug/ml of PDGFR β extracellular domain (ECD; Fc- and His-tagged, Sino Biological) or mouse PDGFR β ECD (R&D Systems) 4 ug/ml in PBS, 100 ul per well, at 4C overnight. Wells were washed thrice in PBS. Unspecific binding sites were blocked in 4% BSA/PBS for 1h at RT, followed by washing thrice in PBS. VHHs 1B5-biotin or 1E12-biotin, diluted at 0.01-100 nM in 1% BSA/PBS, was allowed to bind on ECD for 1 h at RT, followed by washing thrice in PBS. Streptavidin-horseradish peroxidase (HRP; GeneTex) was diluted 1:10,000 in 1% BSA/PBS and was incubated for 1 h at RT. […] Optical density was measured at 492 nm on a Synergy H1 microplate reader (BioTek).

[5] = target: T1, human PDGFR β extra-cellular domain …; assay: SPR (Biacore 3000), Fc/His PDGFR β ECD captured on protein A; only 1E12-Flag-His was run in SPR
Procedure: (§3) FIG. 11: VHH (flag-his-tagged, or conjugated with HL488, NOTA or 800 CW) binding to human extracellular domain (ECD) of PDGFR β assessed with surface plasmon resonance (SPR). Fc/His-tagged PDGFR β ECD was bound to protein A chemically conjugated to CM4 sensor chip. Binding of VHHs was tested at 0.39-50 nM. Shown are representative SPR Biacore traces of tagged or conjugated 1B5 VHH (panels A); tagged or conjugated 1D4 VHH (panels B); tagged or conjugated 1H4 VHH (panels C) or tagged VHH 1E12 (panel D).
(§4) SPR analysis was performed using the Biacore 3000 instrument (GE Healthcare). Protein A was chemically bound to a CM4 sensor chip (GE Healthcare) according to the primary amine procedure to approximately 2100 response units (RU). Fc/His-tagged PDGFR β ECD at 0.4-2.07 ng/ul was bound to protein A at flow rate of 35 ul/min. Run buffer HBS-EP (GE Healthcare; 0.01 M HEPES pH 7.4, 0.15 M NaCl, 3 mM EDTA, 0.005% v/v Surfactant P20) was used for VHHs 1D4, 1H4 and 1E12 conjugates at 50, 25, 12.5, 6.25, 3.13, 1.56, 0.78 and 0.39 nM. For 1B5 conjugates, HBS-EP+0.5 M NaSCN was as run buffer to reduce non-specific binding to a control path without PDGFR β ECD. A flow rate 70 ul/min was used for VHH injections in volumes of 150 ul. Regeneration of the sensor CM4 chip was performed by three successive injections of c. 30 s 10 mM glycine-HCl pH 2, 10 mM glycine-HCl pH 1.5, and 0.5 M NaSCN/10 mM NaOH.

[6] = target: human PDGFR β ECD (U-protein Express, Utrecht) (human) (UniProt P09619); assay: dose response ELISA on immobilized PDGFR β
[7] = target: T1, human PDGFR β extra-cellular domain …; assay: SPR (Biacore 3000), Fc/His PDGFR β ECD captured on protein A; 1D4 construct not stated
Procedure: as §3, §4

[8] = target: human PDGFR β ECD (U-protein Express, Utrecht) (human) (UniProt P09619); assay: dose response ELISA, PDGFR β ECD coated at 2 µg/ml, rabbit anti-VHH detection

EC50 [1]: 0.117 nM
binding result [2]: no binding (tested: 0.01-100 nM)
binding result [3]: no binding (tested: 0.01-100 nM)
B1: 1B5-biotin (VHH)
VHH: EVQLVESGGGLVQPGGSLRLSCVASGFSFSESAMSWVRQAPGKGLEWLSGISSGGGRSTTYAESVEGRFTISRDDAKNTLMLQMNSLKSEDTAVYYCAKTGYCSGYNCNFAPRGQGTQVTVSS
modifications: Biotin-maleimide on the C-terminal cysteine of the C-Direct tag
notes: ID NO: 25 or 26; also called VHH 1B5-biotin; biotin-conjugated 1B5; not shown: C-terminal C-Direct tag with a free cysteine and an EPEA purification tag (vector pYQVQ11)

EC50 [4]: 1.1 nM
binding result [2]: no binding (tested: 0.01-100 nM)
binding result [3]: no binding (tested: 0.01-100 nM)
B2: 1E12-biotin (VHH)
VHH: EVQLVESGGGLVQAGGSLRLSCAPSERSFSAYLMGWFRQAQGKEREFVAAWRWPTSTTYYSDSGKGRFTITGDNAKNTVELEMNSLKPEDTAVYYCAARRGILYGPATSPTAYDFWGQGTQVTVSS
modifications: Biotin-maleimide on the C-terminal cysteine of the C-Direct tag
notes: ID NO: 31 or 32; also called VHH 1E12-biotin; biotin-conjugated 1E12; not shown: C-terminal C-Direct tag with a free cysteine and an EPEA purification tag (vector pYQVQ11)

Kd [5]: ~100 nM
B3: 1E12-Flag-His (VHH)
VHH: EVQLVESGGGLVQAGGSLRLSCAPSERSFSAYLMGWFRQAQGKEREFVAAWRWPTSTTYYSDSGKGRFTITGDNAKNTVELEMNSLKPEDTAVYYCAARRGILYGPATSPTAYDFWGQGTQVTVSS
notes: Made in E. coli; ID NO: 31 or 32 (N-terminal residue differs); also called VHH 1E12 (flag-his-tagged); tagged VHH 1E12; not shown: C-terminal FLAG-His tag from vector pMEK222

apparent binding affinity [6]: 0.5 nM
Kd [7]: ~0.02 nM
apparent affinity [8]: < 1 nM
B4: QPD-1D4 (VHH)
VHH: EVQLVESGGGLVQAGDSLRLSCAVSGRAQSRDVVGWFRQAPGKEREFLALVTRSYSTYYGASVKGRFTISRDNAKNTVHLEMNSLKPEDTGVYYCAADQGFCSGSGCYDWRTFHVWGQGTQVTVSS
notes: Purified, unconjugated VHH; also called VHH 1D4
